# Laboratory results taken from patent US11726088B2, “Sirtuin 4 (SIRT4) lipoamidase activity and uses thereof” (THE TRUSTEES OF PRINCETON UNIVERSITY, priority 2014, dated 2023).
# Primed or numbered codes have the meaning given here. Ends that are not written are not given here. * marks the point of attachment. lipoyl″ = O=C(CCCC[C@@H]1CCSS1)*
# Legend:
# SIRT4 mRNA = assay: SIRT4 knock-down efficiency by qRT-PCR in MRC5 cells stably expressing shRNA; format: cell-based, human; details: MRC5 fibroblasts, mRNA level by qPCR; listed as construct #5
# Excerpt: SIRT4 shRNA expression. pLKO.1-puro vectors containing either non-targeting control shRNA or SIRT4-targeting shRNA were purchased from Sigma-Aldrich and are listed in FIG. 11. To generate MRC5 cells stably expressing each of the shRNA constructs, HEK293T cells were co-transfected with appropriate pLKO.1 vector, pCMVΔR8.2 (Addgene, plasmid #12263) and pMD2.G (Addgene, plasmid #12259) using FuGENE 6. Media containing lentivirus particles were used to transduce MRC5 cells, which were subsequently selected with 2 μg/mL puromycin (InvivoGen, cat. #ant-pr-1). Knockdown efficiency was measured by qRT-PCR and western blotting.
# qRT-PCR analysis. For qRT-PCR analysis, MRC5 cells were collected and washed with PBS. Total RNA was isolated from cell pellets using RNeasy Mini Kit (Qiagen, cat. #74104) and the concentration/purity determined by measuring the absorbance 260/280 nm using NanoDrop Spectrophotometer (Thermo Fisher Scientific). For cDNA synthesis, 1 μg of RNA from each sample was first treated with DNase I (Life Technologies, cat. #18068015) and then used as a template in the RETROscript kit (Life Technologies, cat. #AM1710). The cDNAs were mixed with appropriate primers listed in FIG. 12 and Power SYBR green PCR master mix (Life Technologies, cat. #4368706) for qRT-PCR on ABI 7900HT Real-Time Thermocycler (Applied Biosystems). […]
# SIRT5 = target: T1, SIRT5 (Homo sapiens, UniProt Q9NXA8); assay: Kinetic analysis of SIRT5 with DLAT K259 peptides; format: biochemical
# T1 construct: purchased Sigma SRP0119-100UG
# T1 sequence (Q9NXA8 37-310): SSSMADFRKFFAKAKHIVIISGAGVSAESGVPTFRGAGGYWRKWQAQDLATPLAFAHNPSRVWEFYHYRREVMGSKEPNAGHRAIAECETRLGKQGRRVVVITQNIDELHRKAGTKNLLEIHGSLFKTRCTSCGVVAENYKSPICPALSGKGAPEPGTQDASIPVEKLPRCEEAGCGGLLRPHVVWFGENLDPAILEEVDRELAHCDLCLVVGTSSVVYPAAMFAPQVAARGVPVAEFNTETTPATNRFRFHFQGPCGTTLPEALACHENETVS
# SIRT4 [1] = target: T2, SIRT4 (Homo sapiens, UniProt Q9Y6E7); assay: HPLC-based SIRT4 kinetics assays (steady-state, acyl-modified peptide substrates); format: biochemical
# T2 construct: 6xHis (followed by human rhinovirus 3C protease site) (N); made in house; host or cells: E. coli BL21(DE3), co-expressed with GroEL and GroES
# T2 sequence (Q9Y6E7 33-314): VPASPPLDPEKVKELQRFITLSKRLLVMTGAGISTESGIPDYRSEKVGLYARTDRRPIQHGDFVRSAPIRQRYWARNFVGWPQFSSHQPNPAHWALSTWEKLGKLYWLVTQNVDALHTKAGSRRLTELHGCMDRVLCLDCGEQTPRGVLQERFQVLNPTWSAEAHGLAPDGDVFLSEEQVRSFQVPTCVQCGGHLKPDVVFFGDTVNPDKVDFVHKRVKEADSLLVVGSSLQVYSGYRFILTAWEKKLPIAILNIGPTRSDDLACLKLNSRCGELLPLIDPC
# Excerpt: Recombinant SIRT4 protein expression and purification. N-terminally truncated human Sirt4 (33-314 of SEQ ID NO: 2) was cloned into a derivative of pET-15b containing a human rhinovirus 3C Protease cleavage site in place of its thrombin cleavage site. 6×His-Sirt4 was co-expressed with GroEL and GroES in BL21(DE3) E. coli in order to promote proper protein folding. Protein was purified using immobilized-metal affinity chromatography (IMAC) followed by anion-exchange chromatography to remove associated folding chaperones. For some experiments the His-tag was removed using 3C protease. Protein was concentrated, snap frozen in N2(l), and stored at −80° C. HPLC-based SIRT4 kinetics assays. SIRT4 kinetic assays were essentially performed as described by others^3,4. Briefly, enzyme reactions (20 μL) were performed in 50 mM Tris, pH 8.0, containing 5 μM recombinant SIRT4 and varying concentrations (0 to 2500 μM) of H3K9- or DLAT-modified peptides with either acetyl-lysine, biotinyl-lysine, or lipoyl-lysine. Reactions were initiated by addition of NAD (1 mM) and incubated at 25° C. for between 30-120 min, depending on substrate-specific reaction rates and to maintain steady-state conditions. Reactions were quenched with formic acid to a final concentration of 0.5% (v/v) and analyzed by HPLC-UV detection (Ultimate 3000 RSLC/VWD-3400). Substrate and product were separated by reverse-phase chromatography (Acclaim PepMap RSLC, 75 μm×15 cm) at 0.75 μL/min. Product concentration was measured by peak integration of A280 signals. Initial reaction velocities were determined in at least duplicate and fit to a modified Briggs-Haldane equation, which substituted kcat×[SIRT4] for Vmax and allowed determination of kinetic parameters, kcat, Km and kcat/Km and their associated error (±SEM), using GraphPad Prism 5. SIRT4's catalytic efficiency towards the various acyl-modified peptide substrates was assessed (Table 1 below).
# SIRT3 = target: T3, SIRT3 (Homo sapiens, UniProt Q9NTG7); assay: Steady-state kinetic analysis of SIRT3 with DLAT K259 peptides; format: biochemical
# T3 construct: purchased Sigma SRP0117-100UG
# T3 sequence (Q9NTG7 1-399): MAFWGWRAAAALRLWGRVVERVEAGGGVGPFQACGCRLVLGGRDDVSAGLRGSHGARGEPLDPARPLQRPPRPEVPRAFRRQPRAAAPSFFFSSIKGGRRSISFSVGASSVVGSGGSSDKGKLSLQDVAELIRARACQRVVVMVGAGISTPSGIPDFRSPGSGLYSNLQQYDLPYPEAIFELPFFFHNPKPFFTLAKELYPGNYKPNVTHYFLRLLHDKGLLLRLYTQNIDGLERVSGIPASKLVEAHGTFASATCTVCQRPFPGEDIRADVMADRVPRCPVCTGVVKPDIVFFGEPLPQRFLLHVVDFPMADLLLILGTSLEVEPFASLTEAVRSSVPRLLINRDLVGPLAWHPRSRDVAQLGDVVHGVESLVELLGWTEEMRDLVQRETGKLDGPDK
# SIRT4 [2] = target: T2, SIRT4; assay: LC-MS-based in vitro peptide deacylation assay; format: biochemical; details: 5 μM SIRT4, 10 uM peptide, with NAD, 1 hr at 37° C.
# Excerpt: Recombinant SIRT4 protein expression and purification. N-terminally truncated human Sirt4 (33-314 of SEQ ID NO: 2) was cloned into a derivative of pET-15b containing a human rhinovirus 3C Protease cleavage site in place of its thrombin cleavage site. 6×His-Sirt4 was co-expressed with GroEL and GroES in BL21(DE3) E. coli in order to promote proper protein folding. Protein was purified using immobilized-metal affinity chromatography (IMAC) followed by anion-exchange chromatography to remove associated folding chaperones. For some experiments the His-tag was removed using 3C protease. Protein was concentrated, snap frozen in N2(l), and stored at −80° C.
# LC-MS-based in vitro peptide deacylation assay. The ability of SIRT4 to hydrolyze various acyl-lysine modifications was measured using LC-MS. In 20 μL reaction volume, 10 uM peptide (lipoyl-, biotinyl-, or acetyl-lysine) was incubated with increasing concentrations of SIRT4 (0.5 μM, 2.5 μM, and 5 μM), with or without NAD, in 50 mM TrisHCl, pH 8, 137 mM NaCl, 2.7 mM KCl and 1 mM MgCl2, for 1 hr at 37° C. Reactions were quenched with 25 μL of 2% TFA and an internal control peptide was spiked in to monitor for run-to-run variability. Reaction products were desalted, eluted, concentrated and analyzed by nano-LC-MS/MS, as above, but altered LC gradients. A 30 min linear gradient from 4-40% B was used for all peptides, except for lipoyl-lysine biological peptides, which used a 12-70% B linear gradient. Data were imported into Skyline software (version 2.1) to obtain precursor extracted ion chromatographams (XICs) using the following settings: Isotope Count, 3; precursor mass analyzer, Orbitrap; Resolving power, 60,000 @ 400 Th. The retention times of substrate (modified) and product (unmodified) peptides were confirmed by fragmentation spectra and peak integration boundaries were manually inspected. Three biological replicates were analyzed for each reaction.
# The lipoamide cofactor bound to E2 (transferase enzymes) is required for dehydrogenase complex activity (FIG. 1b). Given that other mitochondrial SIRTs can hydrolyze various […] group lysine modifications^3,4 and that all PDHC components were present in our SIRT4 isolation, we speculated that E2 dehydrogenase components may be biological substrates of SIRT4, and that SIRT4 may directly hydrolyze the lipoamid modification. To test this we screened the in vitro activity of recombinant SIRT4 against differentially-modified synthetic peptides (FIG. 10). Firstly, SIRT4 activity towards acyl-modified H3K9 peptides (SEQ ID NOs: 3-5) was measured using a liquid-chromatography (LC)-MS-based deacylation assay. SIRT4 was incubated with H3K9 peptides modified with acetyl-lysine (SEQ ID NO: 5), biotinyl-lysine (SEQ ID NO: 4) or lipoyl-lysine (SEQ ID NO: 3), in the presence or absence of NAD. Following reaction, the remaining unreacted substrates and newly generated unmodified peptides were identified and quantified by LC-MS (FIG. 2A, 2G-2I and FIG. 5). […] To compare the relative preference of SIRT4 for these different substrates, we used extracted ion chromatograms to quantify unreacted substrate (S) and product (P) amounts from all reactions, and represented the percentage of unmodified peptide generated (FIG. 2H). […] The relative amount of unmodified product generated using 5 μM SIRT4 was 11% (lipoyl—SEQ ID NO: 3), 3% (biotinyl—SEQ ID NO: 4) and 0.3% (acetyl—[…]) (FIG. 2B and FIG. 2H, H3K9 substrates). […]
# [3] = SIRT4 enzyme concentration = 5 μM, NAD 1 mM, 25° C.
Substance,SIRT4 knock-down (SIRT4 mRNA),SIRT5 activity (SIRT5),Km (SIRT4 [1]; [3]),kcat (SIRT4 [1]; [3]),increase in efficiency compared to H3K9 lipoyl (SIRT4 [1]; another experiment (Table 1)),increased efficiency compared to H3K9 lipoyl (SIRT4 [1]; first experiment),"efficiency of hydrolysis by SIRT4, fold more than deacetylation of MCD (SIRT4 [1]; versus MCD acetyl)","SIRT3 efficiency, fold lower than for DLAT acetyl (SIRT3)",SIRT3 enzymatic activity (SIRT3),relative amount of unmodified product generated (SIRT4 [2])
"shSIRT4 #5: SIRT4-targeting shRNA construct in pLKO.1-puro vector, purchased from Sigma-Aldrich (DNA CCGGACAGGGACTTTCACTTGAATCCTCGAGGATTCAAGTGAAAGTCCCTGTTTTTTG)",> 80%,–,–,–,–,–,–,–,–,–
DLAT K259 Lipoyl: synthetic DLAT K259 peptide with lipoyl-lysine (SEQ ID NO: 8) (EIETDK(lipoyl″)ATIGWW),–,no activity was detected,239 ± 51 µM,0.0016 ± 0.0001 s⁻¹,3.3 fold,3.5 fold,~1270 fold,13 fold,some enzymatic activity,33%
